Source: US20050129672, “Regulatory sequences that direct gene expression to spinal motor neurons and uses thereof” (published 2005)

Assays:
HOXC8 + PBX1 = HOXC8 + PBX1 (UniProt P31273;P40424 P31273:1-242,P40424:1-430); experiment: EMSA; no retarded complex with PBX1; settings: tags: pSG5-derived vectors, reticulocyte lysate; label: DIG
Experimental: (§1) PBX1 and HOX proteins used in this study were produced in vitro from the corresponding pSG5-derived expression vectors using a T7 polymerase-based coupled transcription-translation reticulocyte lysate system (Promega, Madison, Wis.). EMSA were performed according to the instruction of DIG gel shift kit (Roche). Briefly, 2 μl of double-stranded DIG-labeled oligonucleotides were incubated with 2 μl of in vitro-translated proteins in 20 μl of binding buffer (20 mM Hepes pH 7.6, 1 mM EDTA, 10 mM (NH₄)₂SO_{4, 1} mM DTT, 0.2%(w/v) Tween 20, 30 mM KCl in the presence of 1 μg of poly (dI-dC) and 0.1 μg of poly L-lysine) for 30 min at room temperature. Pre-binding reactions of unlabeled competitor oligonucleotides at ˜100-fold molar excess occurred for 15 minutes at room temperature. The incubation mixture was resolved by electrophoresis and served for chemiluminescent detection according to recommended conditions of DIG gel shift kit (Roche). DIG-labeled DNA probes used were generated by annealing complementary oligonucleotides:
(§2) Next, a representative subset of HOX proteins was tested for cooperative DNA binding with Pbx 1, to both the wild-type and a mutated 40 bp sequence derived from the 125 bp Hb9 enhancer (FIG. 6D). […] No binding was detected with PBX1 alone (lane 1), or with either of the HOX proteins alone. […]

HOXD9 + PBX1 = HOXD9 + PBX1 (UniProt P28356;P40424 P28356:1-352,P40424:1-430); experiment: EMSA; no retarded complex with PBX1; settings: tags: pSG5-derived vectors, reticulocyte lysate; label: DIG
Experimental: as §1, §2

HOXB3 = HOXB3 (UniProt P14651 P14651:1-431); experiment: EMSA; HOX alone; settings: tags: pSG5-derived vector, reticulocyte lysate; label: DIG
Experimental: as §1, §2

HOXB1 = HOXB1 (UniProt P14653 P14653:1-301); experiment: EMSA; HOX alone; settings: tags: pSG5-derived vector, reticulocyte lysate; label: DIG
Experimental: as §1, §2

HOXB3 + PBX1 = HOXB3 + PBX1 (UniProt P14651;P40424 P14651:1-431,P40424:1-430); experiment: EMSA; cooperative complex; 20 mM Hepes pH 7.6, 30 mM KCl, poly(dI-dC), RT; settings: tags: pSG5-derived vectors, reticulocyte lysate; label: DIG
Experimental: as §1, §2

PBX1 = biological target: T1, PBX1 (UniProt P40424 P40424:1-430); experiment: EMSA; PBX1 alone; settings: tags: pSG5-derived vector, reticulocyte lysate; label: DIG
T1 sequence: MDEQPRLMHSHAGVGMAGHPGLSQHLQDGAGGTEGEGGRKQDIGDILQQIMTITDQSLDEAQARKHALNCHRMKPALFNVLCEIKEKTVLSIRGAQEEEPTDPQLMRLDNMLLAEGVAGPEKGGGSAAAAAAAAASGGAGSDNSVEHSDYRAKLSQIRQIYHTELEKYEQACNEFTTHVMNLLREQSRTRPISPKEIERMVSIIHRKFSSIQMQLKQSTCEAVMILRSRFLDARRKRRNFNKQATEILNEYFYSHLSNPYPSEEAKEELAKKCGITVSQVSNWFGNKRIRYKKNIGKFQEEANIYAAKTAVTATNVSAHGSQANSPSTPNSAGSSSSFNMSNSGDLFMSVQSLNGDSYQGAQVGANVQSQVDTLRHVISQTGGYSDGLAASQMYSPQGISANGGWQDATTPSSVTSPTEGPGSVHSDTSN
Experimental: as §1, §2

HOXB1 + PBX1 = HOXB1 + PBX1 (UniProt P14653;P40424 P14653:1-301,P40424:1-430); experiment: EMSA; cooperative complex; abolished by anti-PBX1 antibody; 20 mM Hepes pH 7.6, 30 mM KCl, poly(dI-dC), RT; settings: tags: pSG5-derived vectors, reticulocyte lysate; label: DIG
Experimental: as §1, §2

HOXB3, sequence (P14651 whole entry, one chain of several): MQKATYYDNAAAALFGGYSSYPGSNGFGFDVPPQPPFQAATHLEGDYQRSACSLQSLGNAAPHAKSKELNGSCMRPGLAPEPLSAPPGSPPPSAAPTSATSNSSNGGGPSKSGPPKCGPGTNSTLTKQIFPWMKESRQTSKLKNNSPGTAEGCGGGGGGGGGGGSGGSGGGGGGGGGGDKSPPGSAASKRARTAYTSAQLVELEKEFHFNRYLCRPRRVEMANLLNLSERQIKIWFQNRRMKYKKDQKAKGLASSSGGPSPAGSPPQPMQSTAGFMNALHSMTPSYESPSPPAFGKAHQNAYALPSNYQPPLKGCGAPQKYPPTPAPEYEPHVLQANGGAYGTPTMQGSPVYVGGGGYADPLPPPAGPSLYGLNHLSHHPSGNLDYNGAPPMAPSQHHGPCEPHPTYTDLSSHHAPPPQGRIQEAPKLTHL
HOXB3 + PBX1, sequence (P14651 whole entry, one chain of several): as above
HOXC8 + PBX1, sequence (P31273 whole entry, one chain of several): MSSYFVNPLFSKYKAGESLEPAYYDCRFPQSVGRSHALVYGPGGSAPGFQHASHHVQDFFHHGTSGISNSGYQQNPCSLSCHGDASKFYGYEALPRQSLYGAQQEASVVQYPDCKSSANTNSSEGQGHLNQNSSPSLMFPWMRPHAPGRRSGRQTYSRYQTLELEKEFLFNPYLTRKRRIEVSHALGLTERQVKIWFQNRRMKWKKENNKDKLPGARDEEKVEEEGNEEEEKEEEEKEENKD
HOXB1 + PBX1, sequence (P14653 whole entry, one chain of several): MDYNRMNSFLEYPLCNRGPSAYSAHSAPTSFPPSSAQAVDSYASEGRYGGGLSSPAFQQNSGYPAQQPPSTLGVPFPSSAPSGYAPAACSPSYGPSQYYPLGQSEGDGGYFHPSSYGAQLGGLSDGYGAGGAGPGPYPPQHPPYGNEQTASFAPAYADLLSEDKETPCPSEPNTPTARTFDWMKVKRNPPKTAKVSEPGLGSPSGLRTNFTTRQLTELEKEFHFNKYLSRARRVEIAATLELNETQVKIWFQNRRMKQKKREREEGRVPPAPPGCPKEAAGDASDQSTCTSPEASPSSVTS
HOXB1, sequence (P14653 whole entry, one chain of several): as above
HOXD9 + PBX1, sequence (P28356 whole entry, one chain of several): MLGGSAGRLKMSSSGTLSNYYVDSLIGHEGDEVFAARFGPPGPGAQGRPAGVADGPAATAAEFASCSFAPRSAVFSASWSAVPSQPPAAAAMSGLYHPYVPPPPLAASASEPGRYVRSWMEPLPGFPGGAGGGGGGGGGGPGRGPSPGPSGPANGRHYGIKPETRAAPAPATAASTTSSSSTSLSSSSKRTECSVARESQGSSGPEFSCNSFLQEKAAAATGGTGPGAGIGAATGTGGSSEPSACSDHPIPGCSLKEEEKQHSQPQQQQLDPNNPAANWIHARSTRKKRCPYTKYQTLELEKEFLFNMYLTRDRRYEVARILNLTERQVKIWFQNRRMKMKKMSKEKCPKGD

B1: Hb9 125 bp enhancer wild-type 40 bp probe (dsDNA)
DNA 1: GTACGTTAGCTGATGAATTGACAAAAACTAATCAGCTTTA
DNA 2: TAAAGCTGATTAGTTTTTGTCAATTCATCAGCTAACGTAC
binding result (HOXC8 + PBX1): no binding
binding result (HOXD9 + PBX1): no binding
binding result (HOXB3): no binding
binding result (HOXB1): no binding
binding result (HOXB3 + PBX1): binds
binding result (PBX1): no binding
binding result (HOXB1 + PBX1): binds
